Experimental data reported in patent US20140105889A1 (published 2014).
Substitutions are numbered along the chain they refer to. Where two headings read alike, the source gives them in different places.

How the values were obtained:
mouse FcγRIV [1] = molecular target: T1, mouse FcγRIV (mouse); experiment: SPR (Biacore), antibody captured on Protein L, mouse FcγR as analyte, pH 7.4, 25 C
T1 construct: Bought soluble receptor; also called mFcgRIV; mFcgR IV
Experimental: (§1) Binding activity between the antibodies and mouse FcγRI, FcγRII, FcγRIII and FcγRIV (R&D Systems, Sin θ Biological) (hereinafter referred to as mouse FcγRs) was evaluated using the Biacore T100 or T200 (GE Healthcare). The antibodies being tested were captured by Protein L (ACTIGEN) that was immobilized in suitable amounts on the CM4 Sensor Chip (GE Healthcare) by amine coupling. Next, the diluted mouse FcγRs and a running buffer used as a blank were injected to allow interaction with the antibody captured on the sensor chip. A buffer consisting of 20 mmol/L ACES, 150 mmol/L NaCl and 0.05% (w/v) Tween 20 (pH 7.4) was used for the running buffer, and this buffer was also used to dilute the mouse FcγRs. 10 mmol/L glycine-HCl (pH 1.5) was used to regenerate the sensor chip. All measurements were carried out at 25° C.

mouse FcγRIV [2] = molecular target: T1, mouse FcγRIV; experiment: as above; remark: listed apart in the source
Experimental: as §1
Binding activity to mouse FcγRs can be represented by the relative binding activity to mouse FcγRs. Antibody was captured by Protein L, and the amount of change in a sensorgram before and after the antibody was captured was defined as X1. Next, mouse FcγRs were allowed to interact with the antibody, and the value obtained by subtracting binding activity of mouse FcγRs represented as the amount of change in a sensorgram before and after allowing the running buffer to interact with antibody captured by Protein L (ΔA2) from the value obtained by multiplying by 1500 the value obtained by dividing the binding activity of mouse FcγRs represented as the amount of change in a sensorgram before and after that interaction (ΔA1) by the captured amount (X) of each antibody, was divided by the captured amount of each antibody (X) followed by multiplying by 1500 to obtain the binding activity of the mouse FcγRs (Y) (Equation 1).

FcγRIIIa type V = molecular target: T2, FcγRIIIa type V (human, UniProt P08637 17-208, limits assumed); experiment: SPR (Biacore), captured antibody, FcγR as analyte, method of Example 14
T2 construct: also called FcγRIIIaV; FcγRIIIa(V)

FcγRIIa type H = molecular target: T3, FcγRIIa type H (human, UniProt P12318 36-217); experiment: as above
T3 construct: also called FcγRIIaH; FcγRIIa(H)
T3 sequence: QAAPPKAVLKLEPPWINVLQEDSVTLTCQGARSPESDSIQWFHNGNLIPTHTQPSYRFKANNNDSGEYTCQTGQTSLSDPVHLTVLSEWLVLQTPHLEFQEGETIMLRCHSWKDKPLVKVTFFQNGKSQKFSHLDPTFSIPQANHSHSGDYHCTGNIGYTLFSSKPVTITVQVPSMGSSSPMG

FcγRIIb [3] = molecular target: T4, FcγRIIb (human, UniProt P31994 43-217, limits assumed); experiment: ratio of SPR KD values of this variant (FcγRIIaH over FcγRIIb)
T4 construct: also called FcγIIB; FcgRIIb
T4 sequence: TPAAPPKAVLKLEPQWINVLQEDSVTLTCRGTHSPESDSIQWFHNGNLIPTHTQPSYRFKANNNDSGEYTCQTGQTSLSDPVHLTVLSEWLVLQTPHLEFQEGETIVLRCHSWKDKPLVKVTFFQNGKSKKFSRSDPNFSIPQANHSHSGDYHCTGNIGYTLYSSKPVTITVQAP
Text: (§2) Furthermore, KD(IIaR)/KD(IIb) and KD(IIaH)/KD(IIb) in the table respectively represent the value obtained by dividing the KD value of each variant for FcγRIIaR by the KD value of each variant for FcγRIIb, and the value obtained by dividing the KD value of each variant for FcγRIIaH by the KD value of each variant for FcγRIIb.

FcγRIIb [4] = molecular target: T4, FcγRIIb; experiment: ratio of SPR KD values of this variant (FcγRIIaR over FcγRIIb)
Text: as §2

human FcRn = molecular target: T5, human FcRn (human); experiment: SPR (Biacore), pH 7.0, 25 C, antibody captured by Protein L, human FcRn as analyte
T5 construct: also called hFcRn; soluble human FcRn complexed with β2-microglobulin
Experimental: A kinetic analysis of binding between human FcRn and the aforementioned antibodies was carried out using the Biacore T100 or T200 (GE Healthcare). The antibodies being tested were captured on the CM4 Sensor Chip (GE Healthcare) on which a suitable amount of Protein L (ACTIGEN) was suitably immobilized by amine coupling. Next, diluted human FcRn and a running buffer used as a blank were injected to allow the human FcRn to interact with the antibody captured on the sensor chip. A buffer consisting of 50 mmol/L sodium phosphate, 150 mmol/L NaCl and 0.05% (w/v) Tween 20 (pH 7.0 or pH 7.4) was used for the running buffer, and each buffer was also used to dilute the human FcRn. 10 mmol/L glycine-HCl (pH 1.5) was used to regenerate the sensor chip. All measurements of binding were carried out at 25° C. The KD(M) of each antibody to human FcRn was calculated based on kinetics parameters, i.e., the association rate constant ka (1/Ms) and the dissociation rate constant kd (1/s) calculated from a sensorgram obtained by the measurement. The Biacore T100 or T200 Evaluation Software (GE Healthcare) was used to calculate each parameter.

FcγRIIb [5] = molecular target: T6, FcγRIIb (human, UniProt P31994 43-217, limits assumed); experiment: SPR (Biacore), antibody captured on chip, FcγR as analyte, method of Example 14
T6 construct: Soluble analyte in Biacore; also called FcgRIIb; FcγIIB
T6 sequence: T4 sequence
Experimental: Next, interaction between these antibodies and FcγR was analyzed kinetically using the Biacore T100 (GE Healthcare). The interaction was measured at a temperature of 25° C. using HBS-EP+ (GE Healthcare) for the running buffer. The Series S Sensor Chip CM5 (GE Healthcare) was used after immobilizing Protein A by amine coupling. […] Antibody captured on the chip was washed by allowing 10 mM glycine-HCl (pH 1.5) to react following measurement. The chip regenerated in this manner was used repeatedly. The dissociation constant KD (mol/L) was calculated from the association rate constant ka (L/mol/s) and dissociation rate constant kd (1/s) as calculated by global-fitting the measurement results with a 1:1 Langmuir binding model using the Biacore

T5 sequence (chain, as listed by the source limits assumed, chain 1 of 2): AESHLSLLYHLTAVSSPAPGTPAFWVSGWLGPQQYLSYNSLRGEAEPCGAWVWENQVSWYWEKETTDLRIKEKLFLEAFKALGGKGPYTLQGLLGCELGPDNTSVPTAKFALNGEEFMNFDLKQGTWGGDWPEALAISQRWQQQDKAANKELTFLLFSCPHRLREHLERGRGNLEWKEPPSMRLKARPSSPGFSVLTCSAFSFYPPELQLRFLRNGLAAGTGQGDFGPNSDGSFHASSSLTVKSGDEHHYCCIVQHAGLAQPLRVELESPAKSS
T5 sequence (P61769 21-119 limits assumed, chain 2 of 2): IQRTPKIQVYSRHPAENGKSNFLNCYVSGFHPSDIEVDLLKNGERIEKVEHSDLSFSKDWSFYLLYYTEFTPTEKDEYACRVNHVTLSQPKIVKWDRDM
T2 sequence (P08637 other isoform, or with tags, fused parts or gaps limits assumed): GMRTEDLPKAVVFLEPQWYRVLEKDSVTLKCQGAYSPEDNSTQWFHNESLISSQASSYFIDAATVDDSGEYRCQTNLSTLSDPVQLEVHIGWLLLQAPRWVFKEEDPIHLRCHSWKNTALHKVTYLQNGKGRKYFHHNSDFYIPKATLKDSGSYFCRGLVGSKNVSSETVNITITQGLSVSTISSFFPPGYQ
T1 sequence (A0A0B4J1G0 21-203): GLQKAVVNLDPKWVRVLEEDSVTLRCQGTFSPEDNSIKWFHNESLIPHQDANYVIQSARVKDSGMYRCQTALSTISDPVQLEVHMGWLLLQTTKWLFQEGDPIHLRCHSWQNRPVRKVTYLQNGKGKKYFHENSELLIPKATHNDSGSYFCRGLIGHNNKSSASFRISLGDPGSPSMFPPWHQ

B1: antibody with mPM1H-mIgG1-mF14 heavy chain (antibody)
heavy: DVQLQESGPVLVKPSQSLSLTCTVTGYSITSDHAWSWIRQFPGNKLEWMGYISYSGITTYNPSLKSRISITRDTSKNQFFLQLNSVTTGDTSTYYCARSLARTTAMDYWGQGTSVTVSSAKTTPPSVYPLAPGSAAQTNSMVTLGCLVKGYFPEPVTVTWNSGSLSSGVHTFPAVLQSDLYTLSSSVTVPSSTWPSETVTCNVAHPASSTKVDKKIVPRDCGCKPCICTVPEVSSVFIFPPKPKDVLYITLEPKVTCVVVDISKDDPEVQFSWFVDDVEVHTAQTQPREEQFNSTFRSVSELPIMHQDWLNGKEFKCRVNSAAFPAPIEKTISKTKGRPKAPQVYTIPPPKEQMAKDKVSLTCMITDFFPEDITVEWQWNGQPAENYKNTQPIMDTDGSYFVYSKLNVQKSNWEAGNTFTCSVLHEGLKNHHTEKSLSHSPGK
light: not shown
notes: also called mPM1-mIgG1-mF14; copies: 2 + 2
Question: Which “BINDING AMOUNT (RU)” value (mouse FcγRIV [1]) does the source give for B1 here?
Answer: -8 RU

B2: antibody with mPM1H-mIgG1-mF39 heavy chain (antibody)
heavy: B1 heavy with P231K, S235K
light: not shown
notes: also called mPM1-mIgG1-mF39; copies: 2 + 2
Question: B2 was tested. Which “BINDING AMOUNT (RU)” value (mouse FcγRIV [1]) did it give?
Answer: -3.8 RU

B3: antibody with mPM1H-mIgG1-mF38 heavy chain (antibody)
heavy: B1 heavy with K429H, N430W
light: not shown
notes: also called mPM1-mIgG1-mF38; copies: 2 + 2
Question: With B3 as the binder, how does the “BINDING AMOUNT (RU)” value (mouse FcγRIV [1]) read?
Answer: -4.1 RU

B4: antibody with mPM1H-mIgG1-mF40 heavy chain (antibody)
heavy: B1 heavy with P231K, S235K, K429H, N430W
light: not shown
notes: also called mPM1-mIgG1-mF40; copies: 2 + 2
Question: With B4 as the binder, how does the “BINDING AMOUNT (RU)” value (mouse FcγRIV [1]) read?
Answer: -8.9 RU

B5: VH3/L(WT)-IgG1-F140 (antibody)
heavy: QVQLQESGPGLVKPSETLSLTCAVSGHSISHDHAWSWVRQPPGEGLEWIGFISYSGITNYNPSLQGRVTISRDNSKNTLYLQMNSLRAEDTAVYYCARSLARTTAMDYWGEGTLVTVSSASTKGPSVFPLAPSSKSTSGGTAALGCLVKDYFPEPVTVSWNSGALTSGVHTFPAVLQSSGLYSLSSVVTVPSSSLGTQTYICNVNHKPSNTKVDKKVEPKSCDKTHTCPPCPAPELLGGPKVFLFPPKPKDTLYISRTPEVTCVVVDVSHEDPEVKFNWYVDGVEVHNAKTKPREEQYNSTYRVVSVLTPLHQDWLNGKEYKCKVSNKALPAPIEKTISKAKGQPREPQVYTLPPSRDELTKNQVSLTCLVKGFYPSDIAVEWESNGQPENNYKTTPPVLDSDGSFFLYSKLTVDKSRWQQGNVFSCSVMHEALHYHYTQKSLSLSP
light: not shown
notes: copies: 2 + 2
Question: B5 was tested. Which “BINDING AMOUNT (RU)” value (mouse FcγRIV [2]) did it give?
Answer: 108 RU

B6: IL6R-BP147/IL6R-L (antibody, human IgG1)
heavy: B5 heavy with L236Y, G239D, P240D, K241S, Y254M, P310V, K328A, A332K, Y436N, K441E
light: DIQMTQSPSSLSASVGDRVTITCRASQDISSYLNWYQQKPGKAPKLLIYYTSRLHSGVPSRFSGSGSGTDFTFTISSLQPEDIATYYCQQGNTLPYTFGQGTKVEIK
notes: EU numbering
Question: For B6, which Kd (FcγRIIIa type V) is on record?
Answer: 35 µM

B7: IL6R-BP146/IL6R-L (antibody, human IgG1)
heavy: B5 heavy with L236Y, G239D, P240D, K241S, Y254M, P310V, K328A, Y436N, K441E
light: B6 light
notes: positions are EU numbering, not positions on the entry
Question: B7 was tested. Which Kd (FcγRIIIa type V) did it give?
Answer: 30 µM

Question: And the Kd (FcγRIIa type H)?
Answer: 1.6 µM

Question: What about the “KD (IIaH)/KD (IIb)” value (FcγRIIb [3]) of the same binder?
Answer: 50

Question: What about the “KD (IIaR)/KD (IIb)” value (FcγRIIb [4]) of the same binder?
Answer: 9.3

B8: F1254 (antibody, name in EU numbering)
heavy: B5 heavy with L237R, T309Q, P310V, Y438V, Q440R, S442E
light: not shown
notes: copies: 2 + 2
Question: With B8 as the binder, how does the Kd (human FcRn) read?
Answer: 0.0642 µM

B9: IL6R-BP210/IL6R-L (antibody, human IgG1)
heavy: B5 heavy with G239D, P240D, K241S, Y254M, H270D, P273G, P310V, A332R, Y436N, K441E
light: B6 light
notes: Anti-human IL-6 receptor IgG1 Fc variant
Question: B9 was tested. Which Kd (FcγRIIb [5]) did it give?
Answer: 39 µM

B10: F1213 (antibody, human IgG1, kappa, name in EU numbering)
heavy: B5 heavy with K241S, L253N, P310V, Y438V
light: not shown
notes: copies: 2 + 2
Question: For B10, which Kd (human FcRn) is on record?
Answer: 0.633 µM

B11: IL6R-BP152/IL6R-L (antibody, human IgG1)
heavy: QVQLQESGPGLVKPSETLSLTCAVSGHSISHDHAWSWVRQPPGEGLEWIGFISYSGITNYNPSLQGRVTISRDNSKNTLYLQMNSLRAEDTAVYYCARSLARTTAMDYWGEGTLVTVSSASTKGPSVFPLAPSSKSTSGGTAALGCLVKDYFPEPVTVSWNSGALTSGVHTFPAVLQSSGLYSLSSVVTVPSSSLGTQTYICNVNHKPSNTKVDKKVEPKSCDKTHTCPPCPAPDYLGDDSVFLFPPKPKDTLMISRTPEVTCVVVDVSHEDPEVKFNWYVDGVEVHNAKTKPREEQDNSTYRVVSVLTVLHQDWLNGKEYKCKVSNAALPRPIEKTISKAKGQPREPQVYTLPPSRDELTKNQVSLTCLVKGFYPSDIAVEWESNGQPENNYKTTPPVLDSDGSFFLYSKLTVDKSRWQQGNVFSCSVMHEALHNHYTQESLSLSP
light: B6 light
notes: EU numbering
Question: B11 was tested. Which Kd (FcγRIIIa type V) did it give?
Answer: 40 µM

Question: What about the “KD (IIaH)/KD (IIb)” value (FcγRIIb [3]) of the same binder?
Answer: 136

Question: And the “KD (IIaR)/KD (IIb)” value (FcγRIIb [4])?
Answer: 19.5

B12: F1270 (antibody, name in EU numbering)
heavy: B5 heavy with L237R, S256A, P310V, Y438V, Q440K, S442D
light: not shown
notes: copies: 2 + 2
Question: With B12 as the binder, how does the Kd (human FcRn) read?
Answer: 0.118 µM
